Data as given in publication PMC4635490, “VP22 core domain from Herpes simplex virus 1 reveals a surprising structural conservation in both the Alpha- and Gammaherpesvirinae subfamilies” (The Journal of General Virology, 2015).

Target: the molecule itself
Assay: SEC-MALS; Superdex 200 5/150 GL, 20 mM HEPES pH 7.5, 300 mM NaCl, 10 % glycerol, 2 mM TCEP; 20 µl of 6 mg/ml VP22core injected, 0.3 ml/min

B1: VP22 core domain (conserved C-terminal domain) from Herpes simplex virus 1, residues 174-281 (domain or fragment)
chain: RKLHFSTAPPNPDAPWTPRVAGFNKRVFCAAVGRLAAMHARMAAVQLWDMSRPRTDEDLNELLGITTIRVTVCEGKNLLQRANELVNPDVVQDVDAATATRGRSAASR
notes: VP22 tegument protein of Herpes simplex virus 1 (Human herpesvirus 1), GenBank BAE87004.1, residues 174-281; electron density seen for residues 174-260 plus three amino acids of the N-terminal tag; The tag was not removed: the monomer mass of 14 551 g/mol includes the purification tag and the TEV site; source: bacterial cells, purified (HisTrap HP, Superdex 75 size exclusion); not shown: His6, …
stoichiometry N: 2
